# Data published in patent US10155811B2, “APLNR modulators and uses thereof” (Regeneron Pharmaceuticals, Inc., priority 2013, dated 2018).
# “And” between values parts separate entries of the source, which are not always exact repeats. Equal entries are not always repeated. “Also recorded” adds a separate entry of the source.
# T1: hAPLNR (Homo sapiens, UniProt P35414)
# T1 sequence (P35414 1-380): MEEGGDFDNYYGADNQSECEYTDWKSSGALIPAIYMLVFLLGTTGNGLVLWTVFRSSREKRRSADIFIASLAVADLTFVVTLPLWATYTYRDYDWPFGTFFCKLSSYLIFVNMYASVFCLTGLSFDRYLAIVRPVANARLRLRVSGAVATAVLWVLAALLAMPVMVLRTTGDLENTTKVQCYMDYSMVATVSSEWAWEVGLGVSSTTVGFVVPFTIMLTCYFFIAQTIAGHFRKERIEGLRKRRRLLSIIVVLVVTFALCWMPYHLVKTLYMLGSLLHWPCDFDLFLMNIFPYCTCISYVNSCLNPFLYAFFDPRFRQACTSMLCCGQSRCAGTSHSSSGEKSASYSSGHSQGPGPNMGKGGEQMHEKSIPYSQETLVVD
# Legend:
# hAPLNR [1] = target: T1, hAPLNR; experiment: CRE assay of modified apelin peptides in HEK293/CRE-luc/hAPLNR cells; assay type: cell-based; parameters: expressed in transfected cells
# Protocol: Briefly, an HEK293 cell line was transfected to stably express the full-length human hAPLNR (amino acids 1-380 of accession number NP_005152.1), along with a luciferase reporter [cAMP response element (CRE,4X)-luciferase]. […] After 5 hours of incubation at 37° C. in 5% CO2, luminescence was measured following the addition of One Glo reagent (Promega, #E6051) using a Victor X instrument (Perkin Elmer). The data were fit by nonlinear regression to a 4-parameter logistic equation with Prism 5 software (GraphPad).
# HEK293 parental cells = experiment: FACS binding to HEK293 parental cells; details: Table 3; 10 μg/mL antibody; anti-mouse IgG Alexa 647
# Protocol: Binding ratios for human APLNR binding to purified anti-APLNR monoclonal antibodies were determined by a fluorescence-activated cell sorting (FACS) binding assay. […] The resulting stable cell lines, HEK293/CRE-luc/hAPLNR and HEK293/CRE-luc/MfAPLNR, were maintained in DMEM containing 10% FBS, NEAA, and penicillin/streptomycin with either 100 μg/mL Hygromycin B for hAPLNR cells or 500 μg/mL G418 for MfAPLNR cells.
# For the FACS analysis, HEK293 parental, HEK293/CRE-luc/hAPLNR, and, HEK293/CRE-luc/mfAPLNR cells were dissociated using Enzyme Free Dissociation reagent (#S-004, Millipore, Billerica, Mass., USA) and 10^6 cells/well were plated onto 96-well v-bottom plates in PBS containing 1% FBS. […] Cells were then filtered and analyzed on Accuri Flow Cytometer (BD Biosciences, San Jose, Calif., USA). Unstained and secondary antibody alone controls were also tested for binding to all cell lines. […] Geometric mean (Geom. mean) of fluorescence for each antibody was then normalized to geometric mean of unstained cells to obtain relative binding of antibody (binding ratios) per each cell type: HEK293 (parental), HEK293/CRE-luc/hAPLNR and HEK293/CRE-luc/MfAPLNR.
# hAPLNR [2] = target: T1, hAPLNR; experiment: CRE-luciferase cyclic AMP assay, activation of hAPLNR (inhibition of Forskolin-induced cAMP) in HEK293/CRE-luc/hAPLNR cells; assay type: cell-based; parameters: expressed in transfected cells; details: without Apelin, % of maximum Apelin activation
# Protocol: The ability of anti-APLNR antibodies to activate hAPLNR-mediated cell signaling was measured using a cyclic AMP assay. The hAPLNR is a 7-transmembrane G-protein coupled receptor (GPCR).
# The resulting cell line, HEK293/CRE-luc/hAPLNR, was maintained in DMEM containing 10% FBS, NEAA, pencillin/streptomycin, and 100 μg/mL Hygromycin B.
# Testing of antibodies included a no antibody control.
# The results of all assays were analyzed using nonlinear regression (4-parameter logistics) within Prism 5 software (GraphPad).
# hAPLNR [3] = target: T1, hAPLNR; experiment: retinal vascular development (RVD) model in humanized APLNR mouse pups; assay type: in vivo; parameters: from tissue; host or cells: developing retina of humanized APLNR mouse pups (75% C57BL6 / 25% Sv129), in vivo
# Protocol: A retinal vascular development (RVD) model was used to evaluate the effects of an antagonistic anti-APLNR antibody on blood vessel outgrowth in the normal developing retina of mouse pups that were of a mixed background strain (75% C57BL6 and 25% Sv129) and homozygous for expression of human APLNR in place of mouse APLNR (humanized APLNR mice). Pups were subcutaneously injected on postnatal day 2 (P2) with either 50 mg/kg of an anti-APLNR antagonist antibody, H2aM9232N, or an irrelevant human Fc (hFc) control. Reagents were masked and labeled as Solution A and Solution B to prevent experimenter bias. At postnatal day 5, tissue samples were collected and then fixed in PBS containing 4% paraformaldehyde. Fixed tissue samples were washed with PBS three times for 15 minutes, and subsequently stained with GS Lectin I (Vector Laboratories, #FL-1101) diluted 1:200 in 1×PBS containing 1% BSA in 0.25% Triton-X 100 overnight at 25° C. to visualize retinal vasculature. The following day, stained samples were rinsed with PBS three times for 15 minutes each, flat-mounted onto slides, and coverslips were subsequently mounted using Prolong Gold (Invitrogen, #P36930). Images were taken at 20 times magnification using an epi-fluorescent microscope (Nikon Eclipse 80). The vascularized areas in the retina were measured from acquired images from this assay using Adobe Photoshop CS6 extended. Statistical differences between the results obtained from the IgG control antibody and H2aM9232N treated samples were assessed using a two tailed, unpaired Student T-test (**, p<0.001). Only after retinal vasculature area measurements and statistical analysis were completed, the sample identities were unmasked.
efficacy in the CRE assay relative to apelin-13 (hAPLNR [1]),% Activation at 100 nM mAb (at 10 uM Forskolin) (hAPLNR [2]; Table 6A),"Retinal blood vessel outgrowth (mm^2), MEAN (hAPLNR [3]; group mean, 50 mg/kg subcutaneous at P2, measured at P5) [mm^2]","mean reduction in retinal blood vessel outgrowth compared to control (hFc) (hAPLNR [3]; single subcutaneous injection 50 mg/kg, postnatal day 5)",Molecule,"Binding Ratio of Geom. Mean to Unstained Cells, HEK293 Parental (HEK293 parental cells)",% Activation at 500 nM mAb (at […] Forskolin) (hAPLNR [2]; Table 6B),"Retinal blood vessel outgrowth (mm^2) (hAPLNR [3]; individual eyes (OD/OS), 50 mg/kg subcutaneous at P2, measured at P5, 50 mg/kg)"
retain full efficacy,,,,CSCC[C@H](NC(=O)[C@@H]1CCCN1C(=O)CNC(=O)[C@H](CCCCN)NC(=O)[C@H](Cc1c[nH]cn1)NC(=O)[C@H](CO)NC(=O)[C@H](CC(C)C)NC(=O)[C@H](CCCNC(=N)N)NC(=O)[C@@H]1CCCN1C(=O)[C@H](CCCNC(=N)N)NC(=O)[C@@H](N)CCC(N)=O)C(=O)N1CCC[C@H]1C(=O)N[C@@H](Cc1ccccc1)C(=O)NCC(=O)NCC(=O)NCC(=O)NCC(=O)NCC(=O)O [Apelin-13 + 5G],,,
,No Activation,2.84,approximately 30%,"H2aM9232N: antagonistic anti-APLNR antibody, HCVR/LCVR SEQ ID NO: 98/106, mouse IgG2a Fc (antibody, V domains shown, mouse IgG2a Fc) VH: QVKLVESGGGVVQPGRSLRLSCAASGFTFSNYVIHWVRQAPGKGLEWVAVIWYDGSNKYYADSVKGRFTISRDNSKNTLYLQMNSLRAEDTAVYYCARDRVVRGVDYYYYYGLDVWGQGTSVTVSS VL: EIVMTQSPATLSVSPGERATLSCRASQSVRSNLAWYQQKPGQAPRLLIYGASSRATGIPARFSGTGSGTEFTLTISSLQSDDFAVYYCQQYNKWPRTFGQGTKVEIK",6,did not demonstrate any measurable activation; also recorded: No Activation,2.49 mm^2 and 3.04 mm^2 and 3.57 mm^2 and 3.32 mm^2 and 2.23 mm^2 and 2.36 mm^2
